Results published in patent US20140057830A1 (COMPLIX, published 2014).
Changes are numbered by the printed parent chain.

T1: human IL-23 (human, UniProt Q9NPF7 20-189; P29460 23-328)
T1 construct: Heterodimer p19/p40; in the ELISA captured on the plate through a biotinylated anti-p40 antibody (clone C8.6); also called cytokine IL-23 (eBioscience, 34-8239-85)
T1 sequence (looked up) 1: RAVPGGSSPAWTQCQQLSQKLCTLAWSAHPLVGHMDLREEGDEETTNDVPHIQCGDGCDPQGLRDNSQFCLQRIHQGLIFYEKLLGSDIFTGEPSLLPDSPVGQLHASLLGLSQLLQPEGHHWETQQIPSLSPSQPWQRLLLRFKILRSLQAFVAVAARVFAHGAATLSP
T1 sequence (looked up) 2: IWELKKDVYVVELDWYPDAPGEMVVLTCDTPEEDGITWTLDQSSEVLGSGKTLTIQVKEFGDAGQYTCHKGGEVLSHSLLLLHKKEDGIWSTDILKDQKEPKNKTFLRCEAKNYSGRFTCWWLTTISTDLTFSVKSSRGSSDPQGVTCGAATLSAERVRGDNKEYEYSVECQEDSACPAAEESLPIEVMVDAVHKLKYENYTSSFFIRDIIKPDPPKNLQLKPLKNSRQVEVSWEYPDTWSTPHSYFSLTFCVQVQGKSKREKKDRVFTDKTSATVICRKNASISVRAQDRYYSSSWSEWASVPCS

B1: SEQ ID NO 38 (designed binder)
chain: GSIEQIQKFIASIQESIARIQKSIYAMTGGSGGSGGGSIEQIQKQIAAIQKQIAAIQKQIYAMTGSGGGGSGGSIEQIQKQITAIARQIVAIIVQITAMTP
notes: Alphabody, AC12 library clone
B2: SEQ ID NO 36 (designed binder)
chain: B1 chain with S12P, S16Y, R19A, S23I, T83A, R87S, V90K, I93V, V94T, T97V
notes: Alphabody, AC12 library clone
B3: SEQ ID NO 19 (designed binder)
chain: GSIEQIQKTIAAIQECIARIQKAIYAMTGGSGGSGGGSIEQIQKQIAAIQKQIAAIQKQIYAMTGSGGGGSGGSIEQIQKQIRAIVSQISAILIQIGAMTP
notes: Alphabody, AC12 library clone
B4: SEQ ID NO 59 (designed binder)
chain: B1 chain with F9W, S12L, S16K, S23D, T83N, R87G, V90L, I93A, V94T, T97M
notes: Alphabody, AC12 library clone
B5: SEQ ID NO 6 (designed binder)
chain: GSIEQIQKGIALIQEWIAWIQKSIYAMTGGSGGSGGGSIEQIQKQIAAIQKQIAAIQKQIYAMTGSGGGGSGGSIEQIQKQILAISLQIMAILEQIMAMTP
notes: Alphabody, AC12 library clone
B6: SEQ ID NO 47 (designed binder)
chain: B3 chain with T9K, A12G, C16V, R19L, A23F, V86S, S90Q, L93V, I94L, G97L
notes: Alphabody, AC12 library clone
B7: SEQ ID NO 42 (designed binder)
chain: B1 chain with F9V, S12P, S16Y, R19I, S23Y, T83S, A86M, V90Y, V94S, T97Q
notes: Alphabody, AC12 library clone
B8: SEQ ID NO 8 (designed binder)
chain: B3 chain with T9Y, A12P, C16I, R19K, A23L, R83G, V86I, S90G, I94G, G97Y
notes: Alphabody, AC12 library clone
B9: SEQ ID NO 18 (designed binder)
chain: B3 chain with A12S, C16V, R19A, A23Y, R83A, V86G, S90I, L93V, I94R, G97R
notes: Alphabody, AC12 library clone
B10: SEQ ID NO 61 (designed binder)
chain: B1 chain with F9R, S12G, S16Y, R19K, T83S, A86S, I93V, V94S, T97L
notes: Alphabody, AC12 library clone
B11: SEQ ID NO 22 (designed binder)
chain: B1 chain with F9M, S12P, S16L, S23D, T83G, A86T, V90L, I93L, T97G
notes: Alphabody, AC12 library clone
B12: SEQ ID NO 4 (designed binder)
chain: B3 chain with A12M, C16Y, R19W, A23K, S87G, S90M, I94R, G97T
notes: Alphabody, AC12 library clone
B13: SEQ ID NO 64 (designed binder)
chain: GSIEQIQKVIARIQEPIAVIQKMIYAMTGGSGGSGGGSIEQIQKQIAAIQKQIAAIQKQIYAMTGSGGGGSGGSIEQIQKQISAIRSQILAIIRQIFAMTP
notes: Alphabody, AC12 library clone
B14: SEQ ID NO 27 (designed binder)
chain: B13 chain with V9W, R12Q, P16N, V19D, M23L, S83P, R86A, S87Y, F97S
notes: Alphabody, AC12 library clone
B15: SEQ ID NO 9 (designed binder)
chain: GSIEQIQKKIATIQEYIAYIQKFIYAMTGGSGGSGGGSIEQIQKQIAAIQKQIAAIQKQIYAMTGSGGGGSGGSIEQIQKQIKAILGQIGAIIGQIWAMTP
notes: Alphabody, AC12 library clone
B16: SEQ ID NO 23 (designed binder)
chain: B1 chain with S16C, S23T, T83K, A86R, R87T, V90F, I93F, V94R, T97Y
notes: Alphabody, AC12 library clone
B17: SEQ ID NO 50 (designed binder)
chain: B1 chain with F9A, S12K, S16T, R19F, R87G, V90Y, I93L, V94Q, T97F
notes: Alphabody, AC12 library clone
B18: SEQ ID NO 33 (designed binder)
chain: GSIEQIQKGIAPIQEMIASIQKVIYAMTGGSGGSGGGSIEQIQKQIAAIQKQIAAIQKQIYAMTGSGGGGSGGSIEQIQKQIMAIAFQIFAIMRQILAMTP
notes: Alphabody, AC12 library clone
B19: SEQ ID NO 5 (designed binder)
chain: B1 chain with S12N, S16L, R19C, S23N, R87S, V90Y, I93V, V94A
notes: Alphabody, AC12 library clone
B20: SEQ ID NO 3 (designed binder)
chain: B1 chain with F9R, S12F, S16T, R19W, S23N, T83S, V90R, I93L, V94G, T97F
notes: Alphabody, AC12 library clone
B21: SEQ ID NO 25 (designed binder)
chain: B13 chain with V9Y, P16K, V19Y, S83I, R86G, I93L, R94D, F97Y
notes: Alphabody, AC12 library clone
B22: SEQ ID NO 40 (designed binder)
chain: B1 chain with F9G, S12I, S16T, R19Y, V90T, V94A, T97F
notes: Alphabody, AC12 library clone
B23: SEQ ID NO 43 (designed binder)
chain: B15 chain with K9L, T12S, Y19T, F23L, K83S, L86M, G87I, G90N, I93L, W97F
notes: Alphabody, AC12 library clone
B24: SEQ ID NO 2 (designed binder)
chain: B15 chain with K9G, T12R, Y16V, Y19K, F23G, K83V, L86T, G87H, G90T, G94W
notes: Alphabody, AC12 library clone
B25: SEQ ID NO 29 (designed binder)
chain: B1 chain with F9L, S12R, R19M, S23K, T83I, R87K, V90L, I93V, V94S, T97K
notes: Alphabody, AC12 library clone
B26: SEQ ID NO 13 (designed binder)
chain: B1 chain with F9R, S12P, S16C, R19F, S23L, A86G, V90M, I93F, V94I, T97W
notes: Alphabody, AC12 library clone
B27: SEQ ID NO 26 (designed binder)
chain: B15 chain with K9L, T12V, Y19L, F23K, L86A, G87T, G90S, G94R, W97F
notes: Alphabody, AC12 library clone
B28: SEQ ID NO 10 (designed binder)
chain: GSIEQIQKKIAVIQEVIAGIQKGIYAMTGGSGGSGGGSIEQIQKQIAAIQKQIAAIQKQIYAMTGSGGGGSGGSIEQIQKQISAIIIQITAIVKQIMAMTP
notes: Alphabody, AC12 library clone
B29: SEQ ID NO 20 (designed binder)
chain: B13 chain with P16V, V19S, M23Y, S83G, R86V, S87T, R94S, F97T
notes: Alphabody, AC12 library clone
B30: SEQ ID NO 31 (designed binder)
chain: B3 chain with A12R, C16G, R19V, A23L, S87R, S90T, L93M, I94T, G97F
notes: Alphabody, AC12 library clone

target: T1, human IL-23; experiment: phage ELISA; IL-23 captured by anti-p40 antibody
Protocol: The set-up of the ELISA was as follows. Neutravidin was immobilized on the plate at a concentration of 0.010 mg/ml in PBS (0.100 ml) for 1 hour at room temperature (RT). Plates were washed 5 times with PBS containing 0.05% Tween 20 (PBST) for 5 min. Subsequently, 0.1 ml Biotinylated anti-p40 antibody (100 nM) was added to the plates in PBS containing 0.1% BSA and incubated overnight at 4° C. or at RT for 1 hour. After incubation, plates were washed 5 times with PBST and blocked with PBS containing 0.1% BSA and 0.5% gelatin (0.120 ml/well) for at least 1 hour at room temperature or overnight at 4° C. After washing 5 times with PBST, 100 nM IL-23 (target) was added to 0.1 ml PBS, 0.1% BSA. For individual negative controls no IL-23 was added (background).
In the meantime, the bacteria plates were centrifuged at 1700 rpm for 10 min to pellet the bacteria. Plates with the immobilized IL-23 were washed 5 times with PBST and 0.050 ml of PBS with 0.2% BSA were added to the plate together with 0.050 ml of the bacterial culture supernatant containing phage. Plates were incubated for 1 to 1.5 hours at room temperature while shaking. Shaking of the plates enhanced the ELISA signals.

Row | binding result | Binder
1 | binds | B1
2 | binds | B2
3 | binds | B3
4 | binds | B4
5 | binds | B5
6 | binds | B6
7 | binds | B7
8 | binds | B8
9 | binds | B9
10 | binds | B10
11 | binds | B11
12 | binds | B12
13 | binds | B13
14 | binds | B14
15 | binds | B15
16 | binds | B16
17 | binds | B17
18 | binds | B18
19 | binds | B19
20 | binds | B20
21 | binds | B21
22 | binds | B22
23 | binds | B23
24 | binds | B24
25 | binds | B25
26 | binds | B26
27 | binds | B27
28 | binds | B28
29 | binds | B29
30 | binds | B30
